Here are results for 1 substance from patent publication US20220023333A1, “METHOD FOR INCREASING CANCER PATIENT'S HAEMOGLOBIN LEVEL” (priority 2019, published 2022).

A short description of the data set: Blood haemoglobin level in cancer patients (case examples 1-9). The class given is in vivo, human. From the text: […] Diagnosis: progressive diffuse-nodular multiple myeloma of the stage IIIB. Myelogenic nephropathy, stage III CKD, terminal stage. Chronic programmed dialysis. The initial level of haemoglobin was 72 g/l. The receiving of EPO 20000 IU and iron preparations was prescribed for a month, as a result of which the level of haemoglobin increased to 84 g/l. However, the patient's condition worsened, and there were diagnosed acute transmural myocardial infarction and weight loss in the patient. The patient was prescribed the administration of 30 ml of the sterile pyrogen-free aqueous solution of the poloxamer comprising 13.3 wt % poloxamer-188 (Emuxol-268 of Grade “A”) and water for injection as the remaining part for 30 days. The level of haemoglobin was 116 g/l. Then, 30 ml of the said poloxamer solution was administered to the patient on a daily basis during 9 courses of chemotherapy (cyclophosphan and boramilane), while EPO and iron preparations were no longer prescribed. The level of haemoglobin was maintained in the range of 116-125 g/l.
[…] Diagnosis: locally advanced or metastatic bladder cancer of the 4t^h stage with lumbar vertebral metastases. The initial level of haemoglobin was 129 g/l.
Immunotherapy 1: the patient underwent a course of the therapy with the nivolumab preparation (Opdivo) for 4 months. […]

Turning to nivolumab, the “level of haemoglobin after therapy” value (Example 2, Patient A, bladder cancer 4th stage, nivolumab (Opdivo) for 4 months with regular donated red blood cell transfusion, initial level 129 g/l) was found to be 123000 µg/mL. For the same substance, the “level of haemoglobin after 1 course” value (Example 5, Patient D, right kidney tumor with metastases, nivolumab (Opdivo) immunotherapy, 1 course, initial level 148 g/l) was 104000 µg/mL.
